Test [1] addresses K18 ΔK280 tau oligomers, dual-labeled (tau-AF488/AF647 coaggregates). Put plainly: single-molecule TIRF microscopy colocalisation; dual-labeled tau oligomers produced (heparin, 45 min, 37 °C) in the presence of 2 uM Hsp70-AF405 (1:5 Hsp70/tau), diluted into 0.05 M ammonium acetate pH 7 to 50–200 pM tau, adsorbed onto a glass cover slide for 15 min.
The target of test [2] is K18 ΔK280 tau-AF488 fibrils. Description: FRET or BRET; smFRET saturation binding, pseudo-equilibrium, apparent constants; 100 nM tau-AF488 oligomers or 1200 nM fibrils (initial monomer concentration; donor) mixed with 0.5 nM to 10 uM Hsp70-AF647 (acceptor), 5 min on ice, then diluted to 200 pM tau and read on a confocal setup; oligomer size classes by fluorescence intensity.

The target in test [3] is K18 ΔK280 tau-AF488 oligomers, large (10-mers and higher, apparent size). The description is as above.

Take “Hsp70 labeled with Alexa Fluor 405 (from UniProt P0DMV8 1-641) (natural protein)”: the stoichiometry N (Hsp70 molecules per tau monomer) in test [1] was determined as 0.5.
On to “Hsp70 labeled with Alexa Fluor 647 (from UniProt P0DMV8 1-641) (natural protein)”, for which the Kd in test [2] was 19 nM; in test [3], 170 nM.

The values are drawn from paper PMC6374916.
